Data on two molecules can be found in patent US20030100492A1, “Proteoglycans and pharmaceutical compositions comprising them” (published 2003).

Experiment [1] addresses Soluble FGFR2-alkaline phosphatase fusion protein (FR2-AP) (human) (UniProt P05187). In words: FGF on Syn4-Fc, FGFR-AP; alkaline phosphatase activity and cross-linking of the receptors to radio-labeled bFGF.
For experiment [2], the target named is Recombinant human FGF2 (human, UniProt P09038, 125I label in the FIG. 1 assay and in the FGFR2-AP direct binding assay). In words: immunoprecipitation with anti-P710, incubation with 50 ng FGF2, FB-8 immunoblot. A general note: In western blotting, separated proteins are transferred to a membrane and probed.

Take “Recombinant human FGF2 (from UniProt P09038) (ligand)”: the fold less than with FGFR1 in experiment [1] was 2 fold less.

B1: Mouse syndecan-4 (full length) overexpressed in CHO-KI cells (other)
chain: ESIRETEVIDPQDLLEGRYFSGALPDDEDAGGSDDFELSGSGDLDDTEEPRPFPEVIEPLVPLDNHIPENAQPGIRVPSEPKELEENEVIPKRAPSDVGDDMSNKVSMSSTVQGSNIFERTEVLAALIVGGVVGILFAVFLILLLVYRMKKKDEGSYDLGKKPIYKKAPTNEFYA
modifications: heparan sulfate chains
As to B1, in experiment [2], the “fold more FGF2 bound than syndecan-4 from the CHO-KI parental cells” value is around 3 fold.
